Experimental data: paper PMC12442389

What was measured:
[1] = biological target: His6-tagged PlyCYU endolysin (full-length) (Streptococcus suis (prophage λSa2%2C)); assay: SEC-MALS; Superdex 200 Increase 5/150 GL; 20 mM sodium phosphate, pH 7.0, 150 mM NaCl; 10 µL injected at 10 mg/mL; 0.2 mL/min; self-association, oligomeric number from mass over subunit mass
[2] = biological target: His6-tagged PlyCYU endolysin (full-length) (Streptococcus suis (prophage λSa2%2C)); assay: SEC; SEC-UV; Superdex 200 Increase 10/300 GL; 50 mM phosphate buffer, pH 7.5, 150 mM NaCl; 0.1-0.4 mg/mL protein; 0.5 mL/min; mass from a calibration curve of standard proteins; PlyCYU214 also with 500 mM NaCl; self-association
[3] = biological target: cyuLyz2 (amino acids 266 to 473, glucosaminidase domain of PlyCYU) (Streptococcus suis (prophage λSa2%2C)); assay: SEC-MALS; Superdex 200 Increase 5/150 GL; 20 mM sodium phosphate, pH 7.0, 150 mM NaCl; 10 µL injected at 10 mg/mL; 0.2 mL/min; self-association, oligomeric number from mass over subunit mass
[4] = biological target: cyuLyz2 (amino acids 266 to 473, glucosaminidase domain of PlyCYU) (Streptococcus suis (prophage λSa2%2C)); assay: SEC; SEC-UV; Superdex 200 Increase 10/300 GL; 50 mM phosphate buffer, pH 7.5, 150 mM NaCl; 0.1-0.4 mg/mL protein; 0.5 mL/min; mass from a calibration curve of standard proteins; PlyCYU214 also with 500 mM NaCl; self-association
[5] = biological target: CW7_Lyz2 (amino acids 142 to 473, two cpl-7 motifs and the glucosaminidase domain of PlyCYU) (Streptococcus suis (prophage λSa2%2C)); assay: SEC-MALS; Superdex 200 Increase 5/150 GL; 20 mM sodium phosphate, pH 7.0, 150 mM NaCl; 10 µL injected at 10 mg/mL; 0.2 mL/min; self-association, oligomeric number from mass over subunit mass
[6] = biological target: CW7_Lyz2 (amino acids 142 to 473, two cpl-7 motifs and the glucosaminidase domain of PlyCYU) (Streptococcus suis (prophage λSa2%2C)); assay: SEC; SEC-UV; Superdex 200 Increase 10/300 GL; 50 mM phosphate buffer, pH 7.5, 150 mM NaCl; 0.1-0.4 mg/mL protein; 0.5 mL/min; mass from a calibration curve of standard proteins; PlyCYU214 also with 500 mM NaCl; self-association

His6-tagged PlyCYU endolysin (full-length) (enzyme)
stoichiometry N [1]: 5.2
stoichiometry N [2]: 6.8

cyuLyz2 (amino acids 266 to 473, glucosaminidase domain of PlyCYU) (domain or fragment)
stoichiometry N [3]: 3.9
stoichiometry N [4]: 6.9

CW7_Lyz2 (amino acids 142 to 473, two cpl-7 motifs and the glucosaminidase domain of PlyCYU) (domain or fragment)
stoichiometry N [5]: 4.4
stoichiometry N [6]: 11.8
